Reference: the nanobody polyreactivity screen of Harvey et al. (2022)

Test: yeast display, Sf9 membrane polyspecificity reagent, FACS + sequencing; frameworks hold sequencing errors
Method in brief: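 Synthetic nanobody libraries on Saccharomyces cerevisiae BJ5465 were galactose-induced for 36–48 hours, stained 1 hour at 4 °C with 10% biotinylated, detergent-solubilized Sf9 membrane reagent and enriched on streptavidin microbeads. FACS then separated cells into low and high (top ~1%) gates by anti-HA (expression) and streptavidin (reagent binding) fluorescence. Genes were colony-PCR amplified, MiSeq 2 × 250 sequenced and CDR-length filtered. A clone's polyreactivity label is that of its gate of origin.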

Sequence	polyreactivity (PSR sort gate)
QVQRVESGGGLVQAGGSLRLTCAASGRTFPGYAMGCYRQAPGKERELVAGISYRGGSTYYADSVKGRFTISRDNANNTVYLQMNSLKPEDSAVYYCALDYSRHKGDYWGQGTQVTVSS	low polyreactivity
QVQLVESGGGLVQAGGSLRLSCAASGRIFPRNAMGWYRQAPGKERELVAAISSGGGSTYYADSVKGRFTISRDNAKNTVYLQMNSLKPEDTAVYYCAKRAGWAGWYYRNDYWGQGTQVTVSS	high polyreactivity
QVQLVESGGGLVQAGGSLRISCAASGRIFIWYDMGWYRQAPGKERELVAAITQSDDITYYADSVKGRFTISRDNAKNTVYLQMNSLKPEDTAVYYCAARVLETSTPYGYWGQGTQVTVSS	low polyreactivity
QVQLVESGGGLVQAGGSLRLSCADSGSIFRIYAMGWYSQAPGKERELVAAITGRGGSTYYADSVKGRFTISRDNAKNTVYLQMNSLKPEDTAVYYCAAEERYAYRYDYWGQGTQVTVSS	high polyreactivity
QVQLEESGGGLVQSGGSLRLSCAASGITFARYTMGWYRQAPGKERELVAAISSAGNTYYGDSVKGRFTISRDNAKNTVYLQMNSLKPEDTAVYYCAREYTYYPRWVGYDAYGEDYWGQGTQVTVSS	low polyreactivity
QVQLVESGGGLVQAGGSHRLSCAASGIIFGRYAMGSYIQAPGKERELVAAITSGGSTSYSDSVKGRFTISRDNAKNTVYLQMNSLKPEDTAVYYCAARGWYVRHPQNYGYWGQGTQVTVSS	high polyreactivity
QVQLVESGGGLVQAGGSLRLSCAASGSTFFKNTMGWYRQAPGKEREFVAAIRWSTSRTYYADSVKGRFTISRDNAKYTVYLQMTSLKPEDTAVYYCNAGTSLSRRYPEDYYWGQGTQVTVSS	high polyreactivity
QVQLVESGGGLVQAGGRLRLSCAASGRIFAKNAMGWYRQAPGKERELVAAISGSGGSTYYADSVKGRFTISRDNAKNTVYLQMNSMKPDDTAVYYCAATRGPNYRNGYWGQGTQVTVSS	high polyreactivity
QVQLVESGGGLFKAGGSLRLSCAASGSTLPGYAMGWYRQAPGKERELVAAITGSGGRTYYADSVKGRFTISRDNAKYTVYLQMNSLKPEDTAVYYCGRGQRVYRSQGDYWGQGSQVTVSS	high polyreactivity
QVQLVESGGGLVQAGGSLRLSCAASGTFYKYAMGWYRQAPGKERELVAAISWRGGRTYADSVKGRFKISRDNAKNTVYLQMNSLKPEDTAVYYCNKRFYPEHYYWGQGTQVTVSS	high polyreactivity
QVQLVESGGGLVQAGGSLRLSCAASGRIFRPYAMGWYRQAPGKERELVAGITSSGGSTYYADSVKGRFTISRDNAKNTVYLQMNSLKPEDTAVYYCAADYGWGSGFEYDYWGQGTQVTVSS	low polyreactivity
QVQLVESGGGLVQAGGSLRFSCAACGSIFEFYALGWSSQAPGKERELVAAITWDDGSTYYADSVKGRFTISRDNATNTVYLQMNSLTPEDTAVYYCAADTYITSDLYVYAYYYWGQGTQVTVSS	low polyreactivity
QVQLVESGGGLVQAGGSLRLSCAASGFIFGRYAMGWYRQAPGKERELVAAITSGGRTYYADSVKGRFTISRDNAKNTVYLQMNSLKPEDTAVYYCAKRVGRYWTAGYYWGQGTQVTVSS	high polyreactivity
QVQLVESGGGLVQAGGSLRLSCAASGSTFEANAMGRYRQAPGKERELVAVITWTGGSTYYADSVKGRFTISRDNAKNTVYLQMNSLKPEDTAVYYCAADGVVPGRFFWPAHEYDYWGQGTQVTVSS	low polyreactivity
QVQLVESGGGLVQAGGSLRLSCAASGSIFLKYAMGWYRQAPGKERELVAAISRGGDTNYADSVKGRFTISRDNAKNTVYLQMNSLKPEDTAVYYCAARPGLYFTRRGRYYWGQGTQVTVSS	high polyreactivity
QVQLVESCGGLVQAGGSLRLSCAASGLIFRPNAMGWYRQAPAKERELVAAISGGGGSTYYADSVKGRFTISRDNAKNTVYLQMKSLKPEDTAVYYCNARKLVNRYPVIGVETYDYWGQGTQVTVSS	low polyreactivity
QVQLVESGGGLVQAGGSLRLSCAASGSTFHSNAMGWYRQAPGKEREVVATISFGGGSKYYADSVKGRFTISRDNAKNTVYLQMNSLKPEDTAVYYCARDQTFGPCPYVWYYYPGYDYWGQGTQVTVSS	low polyreactivity
QVQLVESGGGLVQAGGSLRLSCAASGSTFGFNGMGWYRQAPGKERELVAAIRSSGGSTYYADSVKGRFTISRDNAKNTVYLQMNSLKPEDTAVYYCAADYYTYGFANWYLWYDYWGQGTQVTVSS	high polyreactivity
QVQLEESGGGLVQAGGSLRLTCAASGRIFYRYAMGWYRQAPGKEREFVAAISGTGGSTYYADSVKGRFTISRDNAKNTVNLQMNSLKPEDTAVYYCAAVSYYSSGYDYWGQGTQVTVSS	high polyreactivity
QVQLVETGGGLVQAGGSLRLSCAASGRIFYGNAMGWYRHAPGKERELVAAITRSGSSTYYADSVKGRFTISRDNAKNTVYLLMNSLKPEDTAVSYCAVKYFDYVGQYAYYYWGQGTQVTVSS	high polyreactivity
QGQLVESGGGLVQAGGSLRLSCAASGFIFSIYAMGWYRQAPGKDRELVAGIDNGGGTYYADSGKGRFTISRDNAKNTVYLQMNRLKPEDTAVYYCAADTYSIGELYDYWGQGTQVTVSS	low polyreactivity
QVQLVESGGGLVQAGGILSLSSAAYGRISVFYTMGWYIQAPGKERELVAVIRTAGGRTKYADSVKGRFTISRDNAKNTVYLQMNSLKPEDTAVYYCADRVVRYGYKYYYWGQGTQVTVSS	low polyreactivity

Sequence	polyreactivity (PSR sort gate)
QVQLVESGGGLVQAGGSLRLSCAASGFTFAYYAMGWYRQAPGKERELVAAISSRGGSTYADSVKGRFTISRDNAKNTVYLQMNSLKPEDTAVYYCNAVVPRSRYFSWTYDYWGQGTQVTVSS	high polyreactivity
QVQLVESGGGLVQAGGSLRLSCAASGRIFLTYAMGWYRPAPGKERELVAAIRSRSGTTYYADSVKGRFTISRDNAKNTVYLQMNRLKPEDTAVFYCAAGGKSRSYYWGQGTQVTVSS	high polyreactivity
QVQLQESGGVQEQEGGSLRQSCAESGTIFLYAYMGWYRQAPGKERELVAAIDVGTTTNYADSVKGRFTICRDNAKNTVYLQMNSLKPDDTAVYYCAANLGYLDDLGYWGQGTQVTVSS	low polyreactivity
QVQLVESGGGLVQAGGSLRLSCAASGSIFPPYAMGWYRQAPGKERELVAAIRRGSSTYYADSVKGRFTISRDNAKNTVYLQMNSLKPEDTAVYYCAARGRYRIGPGRYGKRYDYWGQGTQVTVSS	high polyreactivity
QVQLVESGGGLVQAGGSLRLSCAASGRIFYIYAKGWYRPAPGKERELVAASTNGGSTNYAHSVKGRFTISRDNAKNTVYLQMNSLKPEDTEVYYCATDYVGYSFGMYYWGEGTQVTVSS	low polyreactivity
QVQLVESGGGLVQAGGSLRLSCAASGSTFIANAMGWYRQAPGKERELVAAISASGDSTYYADSVKGRFTISRDNAKNTVYLQMNSLKPEDTAVYYCAADTSVHRHDYWGQGTQVTVSS	low polyreactivity
QVQLVESGGGLVQAGGSLRLSCAASGNIFYLYAMGCYRQAPGKEREFSTSYADSVKGRFTISRDNAKNTVYLQMNSLKPEDTAVYYCAAYKSRGPYYYLFDYWGQGTQVTVSS	low polyreactivity
QVQLVESGGGLVQAGGSLRLSCAASGSIFGLYAMGWYRQAPGKERELVAAINWNGGDTYYADSVKGRFTISRDYAKNTVYLQMNSLIAVDNAVYYCAAYPRDPYKEYDYLGQGTQVTVSS	low polyreactivity
QVQLVESGGGLVQAGGSLRLSCAASGFTFSPYTMGWYRQAPGKERELVATIRYDGTSTYYADSVKGRFTISRDYAKNTVYLQMNSLKPEDTAVYFCAADIWRVYSTFYYWGQGTQVTVSS	low polyreactivity
QVQLVESGGGLVQAGGSLRLSCAASGLIFRRYAMGWYRQAPGKERELVAAITIGGSTSYADSVKGRFTISRDNAKNTVYLQMNSLKPEDTAVYYCAARWGALWYRPYDYWGQGTQVTVSS	high polyreactivity
QVQLVESGGGLVQAGGSLRLSCAASGRIFLRYAMGWYRQAPGKERELVAVISSGGSTYYADSVKGRFTISSDNAKNTVYLQMNSLKPEDSAVYYCAASRHDSRYQYDYWGQGTQVTVSS	high polyreactivity
QVQLVESGGGLVQAGGSLRLSCAASGIIFSPYAMGWYRQAPVKERELVAAISYSGGSTYYADSVKGRFTISRDNAKNTVYLQMNSLKPEDTAVYYCAVVYSYYLAVLGYWDYDYWGQGTQVTVSS	low polyreactivity
QVQLVESGGGLVQAGGSLRLSCAASGSILFYYAMGWYRQAPGKERELVAAITWRGGSTYYADSVKGRFTISRDNAKNTVYLQMNSLKPEDTAVYYCAADLYWYRYYGYDYWGQGTQVTVSS	low polyreactivity
QVQLVESGGGLVQAGGSLRLSCAASGRTFSGNAMGWYIQAPRKDRELVAAISSGGSTNYADSVKGRFTISRDNAKNTVYLQMNSLEPEDTAVYYCAADEWRFPSYAYYYWGQGTQVTVSS	low polyreactivity
QVQLVESGGGLVQAGGSLRLSCAASGSTFYRNAMAWYRQAPGKERELVAAISSTGGSTYYADSVKGRFTISRDNAKNTVYLQMNSLKPEDTAVYYCAVDPGLTKGFGYWGQGTQVTVSS	low polyreactivity
QVQLVESGGGLLQAGGSLRLSCAASGRIKDNGMGWYIKAPGKERELVAAITLSAGRTYYADSVKGRFTISRDNAKNTVYLQMNSLKPEDTAVYYCAAQAERYGYEYWGQGTQVTVSS	low polyreactivity
QVQLVESGGGLVQAGGSLRLSCAASGRTFSSYAKGWYRQAPGKERELVAAITSGGSTYYADSVKGRFTISRDNAKNTVYLQMNSLKPDDTAVYYCAAEQHGYYWHSWNRYIFYYWGQGTQVTVSS	high polyreactivity
QVQLVESGGGLVQAGVSLRLSCAASGSTFDTYAMGWYRQAPGKERELVAAISGSGVRTYYADSVKGRFTISRDNAKYTVYLQMNSLKPEDTAVYYCATTGYARRFDYWGQGSQVTVSS	high polyreactivity
QVQLVESGGGLVQAGGSLRLSCAASGFTFGSYAMGWYRQAPGKERELVAGISRGGSTNYADSVKGRFTISRDNAKNTVYLQMNSLKPEDTAVYYCAARAVYVADTGATPAGYDYWGQGTQVTVSS	low polyreactivity
QVQLVESGGGLVQAGGSLRLSCAASGFIFYRNTMGWYRQAPGKERELDAAISWSGARTYYADSVKGRFTISRDNAKNTVYLQMNSLKPEDTAVYYCNTVFYLHSTTTNGDYWGQGTQVTVSS	high polyreactivity
QVQLVESGGGLVQAGGSLRLSFAASGSIFYRNAMGWYRQAPGKERELVASISASGGRTYYADSVKGRFTISRDNGKNTVYLQMNSVKPEDTAFYYCNKVSPVAYWYSWGINFDYWGQGTQVTVSS	high polyreactivity
